Results from patent US20130053549A1 (UCB, published 2013).

T1: Ox40/mFc (UniProt P43489 29-214)
T1 construct: Bought fusion protein; also called Ox40/mFc (AXXORA 1588)
T1 sequence (looked up): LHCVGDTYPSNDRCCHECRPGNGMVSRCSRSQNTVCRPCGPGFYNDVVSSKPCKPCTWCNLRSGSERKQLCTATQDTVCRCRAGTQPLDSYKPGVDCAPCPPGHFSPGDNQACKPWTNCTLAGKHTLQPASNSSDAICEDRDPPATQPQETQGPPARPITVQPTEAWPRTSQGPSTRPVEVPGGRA

B1: A26Fab 645Fv 5G4S 1189Fv (other)
heavy: EVQLVESGGGLVQPGGSLRLSCAASGFTFTNYGIHWIRQAPGKGLEWVASISPSGGLTYYRDSVKGRFTISRDDAKNSPYLQMNSLRAEDTAVYYCATGGEGIFDYWGQGTLVTVSSASTKGPSVFPLAPSSKSTSGGTAALGCLVKDYFPEPVTVSWNSGALTSGVHTFPAVLQSSGLYSLSSVVTVPSSSLGTQTYICNVNHKPSNTKVDKKVEPKSCSGGGGSGGGGSGGGGSEVQLLESGGGLVQPGGSLRLSCAVSGIDLSNYAINWVRQAPGKCLEWIGIIWASGTTFYATWAKGRFTISRDSTTVYLQMNSLRAEDTAVYYCARTVPGYSTAPYFDLWGQGTLVTVSSGGGGSGGGGSGGGGSGGGGSGGGGSEVQLVESGGGLVQPGGSLRLSCAASGFTFNDYDMAWVRQAPGKCLEWVASITPSGGGTYYRDSVKGRFTISRDNAKNSLYLQMNSLRAEDTAVYYCARHGYTLDYFEYWGQGTMVTVSS
light: DIQMTQSPSSLSASVGDRVTITCRATQSIYNALAWYQQKPGKAPKLLIYNANTLHTGVPSRFSASGSGTDSTLTISSLQPEDFATYYCQQYYDYPLTFGGGTKVEIKRTVAAPSVFIFPPSDEQLKSGTASVVCLLNNFYPREAKVQWKVDNALQSGNSQESVTEQDSKDSTYSLSSTLTLSKADYEKHKVYACEVTHQGLSSPVTKSFNRGECSGGGGSGGGGSGGGGSDIVMTQSPSSVSASVGDRVTITCQSSPSVWSNFLSWYQQKPGKAPKLLIYEASKLTSGVPSRFKGSGSGTDFTLTISSLQPEDFATYYCGGGYSSISDTTFGCGTKVEIKGGGGSGGGGSGGGGSGGGGSGGGGSDIQMTQSPSSLSASVGDRVTITCLASEGISNDLAWYQQKPGKAPKLLIYDATRLQDGVPSRFSGSGSGTDFTLTISSLQPEDFATYYCQQSYKYPWTFGCGTKLEIK
notes: Trispecific Fab-Fv-Fv (OX40, HSA, IL-6); second linker 5xG4S; HEK293 supernatant; also called A26Fab-645Fv-1189Fv; FabFvFv
B2: A26Fab-(3xG4S)-645dsFv-(3xG4S)-870dsFv (other)
heavy: EVQLVESGGGLVQPGGSLRLSCAASGFTFTNYGIHWIRQAPGKGLEWVASISPSGGLTYYRDSVKGRFTISRDDAKNSPYLQMNSLRAEDTAVYYCATGGEGIFDYWGQGTLVTVSSASTKGPSVFPLAPSSKSTSGGTAALGCLVKDYFPEPVTVSWNSGALTSGVHTFPAVLQSSGLYSLSSVVTVPSSSLGTQTYICNVNHKPSNTKVDKKVEPKSCSGGGGSGGGGSGGGGSEVQLLESGGGLVQPGGSLRLSCAVSGIDLSNYAINWVRQAPGKCLEWIGIIWASGTTFYATWAKGRFTISRDSTTVYLQMNSLRAEDTAVYYCARTVPGYSTAPYFDLWGQGTLVTVSSGGGGSGGGGSGGGGSEVQLVESGGGLVQPGGSLRLSCAASGYVFTDYGMNWVRQAPGKCLEWMGWINTYIGEPIYADSVKGRFTFSLDTSKSTAYLQMNSLRAEDTAVYYCARGYRSYAMDYWGQGTLVTVSS
light: DIQMTQSPSSLSASVGDRVTITCRATQSIYNALAWYQQKPGKAPKLLIYNANTLHTGVPSRFSASGSGTDSTLTISSLQPEDFATYYCQQYYDYPLTFGGGTKVEIKRTVAAPSVFIFPPSDEQLKSGTASVVCLLNNFYPREAKVQWKVDNALQSGNSQESVTEQDSKDSTYSLSSTLTLSKADYEKHKVYACEVTHQGLSSPVTKSFNRGECSGGGGSGGGGSGGGGSDIVMTQSPSSVSASVGDRVTITCQSSPSVWSNFLSWYQQKPGKAPKLLIYEASKLTSGVPSRFKGSGSGTDFTLTISSLQPEDFATYYCGGGYSSISDTTFGCGTKVEIKGGGGSGGGGSGGGGSDIQMTQSPSSLSASVGDRVTITCKASQNVGTNVAWYQQKPGKAPKALIYSASFLYSGVPYRFSGSGSGTDFTLTISSLQPEDFATYYCQQYNIYPLTFGCGTKVEIKR
notes: Trispecific Fab-Fv-Fv (OX40, HSA, TNF); terminal 870 Fv with a disulfide (+DS read as dsFv); HEK293 supernatant; also called A26-645-870+DS; A26Fab-645Fv-652/870Fv
B3: A26Fab 645Fv 4G4S 1189Fv (other)
heavy: EVQLVESGGGLVQPGGSLRLSCAASGFTFTNYGIHWIRQAPGKGLEWVASISPSGGLTYYRDSVKGRFTISRDDAKNSPYLQMNSLRAEDTAVYYCATGGEGIFDYWGQGTLVTVSSASTKGPSVFPLAPSSKSTSGGTAALGCLVKDYFPEPVTVSWNSGALTSGVHTFPAVLQSSGLYSLSSVVTVPSSSLGTQTYICNVNHKPSNTKVDKKVEPKSCSGGGGSGGGGSGGGGSEVQLLESGGGLVQPGGSLRLSCAVSGIDLSNYAINWVRQAPGKCLEWIGIIWASGTTFYATWAKGRFTISRDSTTVYLQMNSLRAEDTAVYYCARTVPGYSTAPYFDLWGQGTLVTVSSGGGGSGGGGSGGGGSGGGGSEVQLVESGGGLVQPGGSLRLSCAASGFTFNDYDMAWVRQAPGKCLEWVASITPSGGGTYYRDSVKGRFTISRDNAKNSLYLQMNSLRAEDTAVYYCARHGYTLDYFEYWGQGTMVTVSS
light: DIQMTQSPSSLSASVGDRVTITCRATQSIYNALAWYQQKPGKAPKLLIYNANTLHTGVPSRFSASGSGTDSTLTISSLQPEDFATYYCQQYYDYPLTFGGGTKVEIKRTVAAPSVFIFPPSDEQLKSGTASVVCLLNNFYPREAKVQWKVDNALQSGNSQESVTEQDSKDSTYSLSSTLTLSKADYEKHKVYACEVTHQGLSSPVTKSFNRGECSGGGGSGGGGSGGGGSDIVMTQSPSSVSASVGDRVTITCQSSPSVWSNFLSWYQQKPGKAPKLLIYEASKLTSGVPSRFKGSGSGTDFTLTISSLQPEDFATYYCGGGYSSISDTTFGCGTKVEIKGGGGSGGGGSGGGGSGGGGSDIQMTQSPSSLSASVGDRVTITCLASEGISNDLAWYQQKPGKAPKLLIYDATRLQDGVPSRFSGSGSGTDFTLTISSLQPEDFATYYCQQSYKYPWTFGCGTKLEIK
notes: Trispecific Fab-Fv-Fv (OX40, HSA, IL-6); second linker 4xG4S; HEK293 supernatant; also called A26Fab-645Fv-1189Fv; FabFvFv
B4: A26Fab 645Fv 3G4S 1189Fv (other)
heavy: EVQLVESGGGLVQPGGSLRLSCAASGFTFTNYGIHWIRQAPGKGLEWVASISPSGGLTYYRDSVKGRFTISRDDAKNSPYLQMNSLRAEDTAVYYCATGGEGIFDYWGQGTLVTVSSASTKGPSVFPLAPSSKSTSGGTAALGCLVKDYFPEPVTVSWNSGALTSGVHTFPAVLQSSGLYSLSSVVTVPSSSLGTQTYICNVNHKPSNTKVDKKVEPKSCSGGGGSGGGGSGGGGSEVQLLESGGGLVQPGGSLRLSCAVSGIDLSNYAINWVRQAPGKCLEWIGIIWASGTTFYATWAKGRFTISRDSTTVYLQMNSLRAEDTAVYYCARTVPGYSTAPYFDLWGQGTLVTVSSGGGGSGGGGSGGGGSEVQLVESGGGLVQPGGSLRLSCAASGFTFNDYDMAWVRQAPGKCLEWVASITPSGGGTYYRDSVKGRFTISRDNAKNSLYLQMNSLRAEDTAVYYCARHGYTLDYFEYWGQGTMVTVSS
light: DIQMTQSPSSLSASVGDRVTITCRATQSIYNALAWYQQKPGKAPKLLIYNANTLHTGVPSRFSASGSGTDSTLTISSLQPEDFATYYCQQYYDYPLTFGGGTKVEIKRTVAAPSVFIFPPSDEQLKSGTASVVCLLNNFYPREAKVQWKVDNALQSGNSQESVTEQDSKDSTYSLSSTLTLSKADYEKHKVYACEVTHQGLSSPVTKSFNRGECSGGGGSGGGGSGGGGSDIVMTQSPSSVSASVGDRVTITCQSSPSVWSNFLSWYQQKPGKAPKLLIYEASKLTSGVPSRFKGSGSGTDFTLTISSLQPEDFATYYCGGGYSSISDTTFGCGTKVEIKGGGGSGGGGSGGGGSDIQMTQSPSSLSASVGDRVTITCLASEGISNDLAWYQQKPGKAPKLLIYDATRLQDGVPSRFSGSGSGTDFTLTISSLQPEDFATYYCQQSYKYPWTFGCGTKLEIK
notes: Trispecific Fab-Fv-Fv (OX40, HSA, IL-6); second linker 3xG4S; HEK293 supernatant; also called A26Fab-645Fv-1189Fv; FabFvFv
B5: A26Fab 645Fv 2G4S 1189Fv (other)
heavy: EVQLVESGGGLVQPGGSLRLSCAASGFTFTNYGIHWIRQAPGKGLEWVASISPSGGLTYYRDSVKGRFTISRDDAKNSPYLQMNSLRAEDTAVYYCATGGEGIFDYWGQGTLVTVSSASTKGPSVFPLAPSSKSTSGGTAALGCLVKDYFPEPVTVSWNSGALTSGVHTFPAVLQSSGLYSLSSVVTVPSSSLGTQTYICNVNHKPSNTKVDKKVEPKSCSGGGGSGGGGSGGGGSEVQLLESGGGLVQPGGSLRLSCAVSGIDLSNYAINWVRQAPGKCLEWIGIIWASGTTFYATWAKGRFTISRDSTTVYLQMNSLRAEDTAVYYCARTVPGYSTAPYFDLWGQGTLVTVSSGGGGSGGGGSEVQLVESGGGLVQPGGSLRLSCAASGFTFNDYDMAWVRQAPGKCLEWVASITPSGGGTYYRDSVKGRFTISRDNAKNSLYLQMNSLRAEDTAVYYCARHGYTLDYFEYWGQGTMVTVSS
light: DIQMTQSPSSLSASVGDRVTITCRATQSIYNALAWYQQKPGKAPKLLIYNANTLHTGVPSRFSASGSGTDSTLTISSLQPEDFATYYCQQYYDYPLTFGGGTKVEIKRTVAAPSVFIFPPSDEQLKSGTASVVCLLNNFYPREAKVQWKVDNALQSGNSQESVTEQDSKDSTYSLSSTLTLSKADYEKHKVYACEVTHQGLSSPVTKSFNRGECSGGGGSGGGGSGGGGSDIVMTQSPSSVSASVGDRVTITCQSSPSVWSNFLSWYQQKPGKAPKLLIYEASKLTSGVPSRFKGSGSGTDFTLTISSLQPEDFATYYCGGGYSSISDTTFGCGTKVEIKGGGGSGGGGSDIQMTQSPSSLSASVGDRVTITCLASEGISNDLAWYQQKPGKAPKLLIYDATRLQDGVPSRFSGSGSGTDFTLTISSLQPEDFATYYCQQSYKYPWTFGCGTKLEIK
notes: Trispecific Fab-Fv-Fv (OX40, HSA, IL-6); second linker 2xG4S; HEK293 supernatant; also called A26Fab-645Fv-1189Fv; FabFvFv

Legend:
[1] = target: T2, human serum albumin (human, UniProt P02768 25-609); assay: SPR, Biacore T100; sample captured by anti-human CH1 antibody, HSA as analyte
T2 construct: Bought protein; also called HSA
Experimental: (§1) Covalent immobilisation of the capture antibody was achieved by standard amine coupling chemistry.
(§2) After each cycle, the capture surface was regenerated with 2×1 min injections of 40 mM HCl followed by 30 s of 5 mM NaOH. The flow rates used were 10 μl/min for capture, 30 μl/min for association and dissociation phases, and 10 μl/min for regeneration.
(§3) A blank flow-cell was used for reference subtraction and buffer-blank injections were included to subtract instrument noise and drift.

[2] = target: T3, IL-6 (UniProt P05231 30-212, limits assumed); assay: SPR, Biacore T100; sample captured by anti-human CH1 antibody, IL-6 as analyte, 1:1 fit
Experimental: as §1, §3
(§4) Kinetic parameters were determined by simultaneous global-fitting of the resulting sensorgrams to a standard 1:1 binding model using Biacore T100 Evaluation Software v2.0.1.

[3] = target: T3, IL-6; assay: SPR, Biacore T100; sample captured by anti-human CH1 antibody, IL-6 as analyte
Experimental: as §1, §2, §3

[4] = target: T2, human serum albumin; assay: SPR, Biacore T100; sample captured by anti-human CH1 antibody, HSA as analyte, 1:1 fit
Experimental: as §1, §2, §4

[5] = target: T4, TNF (human, UniProt P01375 77-233); assay: SPR, Biacore 3000; sample captured by anti-human CH1 antibody, TNF as analyte
T4 construct: also called TNF (Strathmann hTNFa); hTNFa
Experimental: as §1, §2
Kinetic parameters were determined by simultaneous global-fitting of the resulting sensorgrams to a standard 1:1 binding model using Biacore 3000 Evaluation Software v3.2

[6] = target: T1, Ox40/mFc; assay: SPR, Biacore 3000; construct captured by anti-human CH1 antibody, 20 nM Ox40/mFc alone
Experimental: as §1, §2

[7] = target: T2, human serum albumin; assay: SPR, Biacore 3000; construct captured by anti-human CH1 antibody, 50 nM HSA alone
Experimental: as §1, §2

Binder	Stoichiometry [1]	Kd [2]	koff [2]	kon [2]	Stoichiometry [3]	Kd [4]	koff [4]	kon [4]	Affinity (fold loss against the parent) [5]	Stoichiometry [5]	Response RU [6]	Response RU [7]
B1	0.39	0.48 nM	0.000768 s⁻¹	1.61e+06 M⁻¹ s⁻¹	0.69	12.2 nM	0.000393 s⁻¹	32400 M⁻¹ s⁻¹	–	–	–	–
B2	–	–	–	–	–	–	–	–	2 fold	0.42	32 RU	10 RU
B3	0.4	0.52 nM	0.000729 s⁻¹	1.41e+06 M⁻¹ s⁻¹	0.66	11.7 nM	0.000396 s⁻¹	33900 M⁻¹ s⁻¹	–	–	–	–
B4	0.39	0.84 nM	0.000737 s⁻¹	874000 M⁻¹ s⁻¹	0.68	11.6 nM	0.000392 s⁻¹	33800 M⁻¹ s⁻¹	–	–	–	–
B5	0.4	0.78 nM	0.000747 s⁻¹	959000 M⁻¹ s⁻¹	0.47	11.6 nM	0.000389 s⁻¹	33700 M⁻¹ s⁻¹	–	–	–	–
